{
  "source": "paper PMC9410885",
  "about": "“Structural assembly of the nucleic-acid-binding Thp3–Csn12–Sem1 complex functioning in mRNA splicing” (Nucleic Acids Research, 2022)",
  "binders": {"B1": {"name": "Csn12, full length, untagged (natural protein, S. cerevisiae, UniProt P47130 1-423, looked up)", "chain": "MDVDIGCYFEEKRYDDKLLDFIRYDVKTPKKTKYILQRPTATDEESVRLQRFYQLGVDLKLKYSKRRSLKKQGRIKNATEELLRLANEQLKLFNRIVERETNWIIYPLWVMAKQLIRLANESSELNKDSIEECGRTIHRSFTICLNDRNPRLNENKKIGCYMFANLEFSIYHRLSNKDMIKNLVKVLESRVNARDIPPLNKSLAMEHKSQVVLYNYYLGQYYGCLENDHERGFFHLNEALLQCPMLYVESTGKFVLQGQMEKIMILLVPLALLTKRLYPHWDHPVIAGVITRSKRLSQVYPTLVRSVISGNLSLYEATAASHERFFLSQGLHVVITLLREVVFTRLVQRCWQWGNDRKSIMPLKILLATKQHDSSANEDEEEQLDALECRLASAIASGLLRAYLSHSNRCIVFSKKEPFPHSK", "notes": "Csn12, S. cerevisiae, full length, residues 1-423; untagged Csn12 from pET-22b (with His8-GST-Thp3) or from the first MCS of pETDuet-1 (with Sem1 and His8-GST-Thp3); 7EWF is the selenomethionine form; source: E. coli Rosetta (DE3), co-expressed; in cleared lysate (pull-down) and purified in the ternary complex (Ni-NTA, gel filtration, cation exchange)"}},
  "key": {"[1]": {"target": "B1", "assay": "crystal structure + SEC; single copy of the ternary complex in the asymmetric unit; ratio said to be consistent with the gel filtration result", "settings": "both partners purified"}, "[2]": {"target": "T1, Thp3;Csn12;Sem1 (Saccharomyces cerevisiae;Saccharomyces …, UniProt Q12049;P47130;O94742 1-470;1-423;1-89, ||)", "T1 sequence 1": "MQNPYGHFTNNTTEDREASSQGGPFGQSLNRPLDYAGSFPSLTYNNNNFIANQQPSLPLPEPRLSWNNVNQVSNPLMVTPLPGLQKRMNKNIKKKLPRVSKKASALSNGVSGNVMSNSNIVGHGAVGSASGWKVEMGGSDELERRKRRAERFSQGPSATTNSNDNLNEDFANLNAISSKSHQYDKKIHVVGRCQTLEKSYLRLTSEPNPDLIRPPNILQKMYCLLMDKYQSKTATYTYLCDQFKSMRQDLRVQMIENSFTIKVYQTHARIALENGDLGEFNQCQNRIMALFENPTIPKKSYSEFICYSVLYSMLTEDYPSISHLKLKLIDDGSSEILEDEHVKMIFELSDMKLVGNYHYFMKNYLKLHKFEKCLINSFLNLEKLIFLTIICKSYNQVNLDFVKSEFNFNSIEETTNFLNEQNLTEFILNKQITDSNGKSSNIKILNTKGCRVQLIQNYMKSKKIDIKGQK", "T1 sequence 2": "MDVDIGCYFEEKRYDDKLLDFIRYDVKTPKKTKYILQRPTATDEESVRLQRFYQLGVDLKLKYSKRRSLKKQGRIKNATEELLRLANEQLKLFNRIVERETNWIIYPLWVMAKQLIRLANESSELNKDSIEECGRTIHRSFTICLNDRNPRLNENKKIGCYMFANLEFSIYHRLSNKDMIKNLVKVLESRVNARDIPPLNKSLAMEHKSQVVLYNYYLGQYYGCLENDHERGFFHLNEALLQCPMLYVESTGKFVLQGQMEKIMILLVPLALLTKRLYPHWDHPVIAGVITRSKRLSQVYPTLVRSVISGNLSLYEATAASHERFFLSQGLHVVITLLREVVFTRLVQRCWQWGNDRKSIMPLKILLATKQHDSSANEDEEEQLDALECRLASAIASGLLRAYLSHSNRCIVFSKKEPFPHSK", "T1 sequence 3": "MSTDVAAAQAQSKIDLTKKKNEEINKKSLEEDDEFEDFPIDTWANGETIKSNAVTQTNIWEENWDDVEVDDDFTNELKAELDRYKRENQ", "assay": "fluorescence polarization; FP: 20 mM Tris-HCl pH 8.0, 150 mM NaCl, 2 mM MgCl2, 25 C; 50 nM 5'-FAM probe, protein 0-25.6 uM, 30 min", "settings": "protein: recombinant;recombinant;recombinant, tags: 8xHis-GST N-terminal, removed by TEV;none;none, copies: 1;1;1, label: 5' FAM"}, "[3]": {"target": "T2, Thp3;Csn12 K415E/K416E;Sem1 (Saccharomyces cerevisiae;Saccharomyces …, UniProt Q12049;P47130;O94742 1-470;1-423;1-89, |K415E;K416E|)", "T2 sequence 1": "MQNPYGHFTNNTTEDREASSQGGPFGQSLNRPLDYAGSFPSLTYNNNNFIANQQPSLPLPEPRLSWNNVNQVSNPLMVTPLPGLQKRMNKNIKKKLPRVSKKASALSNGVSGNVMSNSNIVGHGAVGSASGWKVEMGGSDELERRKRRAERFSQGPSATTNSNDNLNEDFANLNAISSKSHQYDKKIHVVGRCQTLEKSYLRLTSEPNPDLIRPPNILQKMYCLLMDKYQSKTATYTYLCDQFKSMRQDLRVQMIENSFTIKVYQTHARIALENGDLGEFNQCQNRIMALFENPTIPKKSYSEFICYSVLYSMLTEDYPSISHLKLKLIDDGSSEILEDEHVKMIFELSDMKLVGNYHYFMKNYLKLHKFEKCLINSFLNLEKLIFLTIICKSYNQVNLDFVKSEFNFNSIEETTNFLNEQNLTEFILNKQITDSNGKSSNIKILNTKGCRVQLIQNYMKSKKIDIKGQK", "T2 sequence 2": "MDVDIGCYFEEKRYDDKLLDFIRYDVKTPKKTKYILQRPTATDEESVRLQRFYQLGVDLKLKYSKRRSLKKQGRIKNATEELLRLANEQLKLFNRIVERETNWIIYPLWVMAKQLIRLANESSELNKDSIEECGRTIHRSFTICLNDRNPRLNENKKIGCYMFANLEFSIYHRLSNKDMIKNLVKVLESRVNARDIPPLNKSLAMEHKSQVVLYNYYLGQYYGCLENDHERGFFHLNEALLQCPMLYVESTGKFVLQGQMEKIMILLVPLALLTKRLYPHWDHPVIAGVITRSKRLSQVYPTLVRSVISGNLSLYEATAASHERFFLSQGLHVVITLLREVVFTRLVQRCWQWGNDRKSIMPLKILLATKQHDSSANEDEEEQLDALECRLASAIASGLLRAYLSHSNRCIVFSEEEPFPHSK", "T2 sequence 3": "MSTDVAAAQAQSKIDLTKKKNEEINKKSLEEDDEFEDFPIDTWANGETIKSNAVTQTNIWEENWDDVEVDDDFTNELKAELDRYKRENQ", "assay": "fluorescence polarization; FP: 20 mM Tris-HCl pH 8.0, 150 mM NaCl, 2 mM MgCl2, 25 C; 50 nM 5'-FAM probe, protein 0-25.6 uM, 30 min", "settings": "protein: recombinant;recombinant;recombinant; tags: 8xHis-GST N-terminal, removed by TEV;none;none; copies: 1;1;1; label: 5' FAM"}, "[4]": {"target": "T3, Thp3;Csn12 R401E;Sem1 (Saccharomyces cerevisiae;Saccharomyces …, UniProt Q12049;P47130;O94742 1-470;1-423;1-89, |R401E|)", "T3 sequence 1": "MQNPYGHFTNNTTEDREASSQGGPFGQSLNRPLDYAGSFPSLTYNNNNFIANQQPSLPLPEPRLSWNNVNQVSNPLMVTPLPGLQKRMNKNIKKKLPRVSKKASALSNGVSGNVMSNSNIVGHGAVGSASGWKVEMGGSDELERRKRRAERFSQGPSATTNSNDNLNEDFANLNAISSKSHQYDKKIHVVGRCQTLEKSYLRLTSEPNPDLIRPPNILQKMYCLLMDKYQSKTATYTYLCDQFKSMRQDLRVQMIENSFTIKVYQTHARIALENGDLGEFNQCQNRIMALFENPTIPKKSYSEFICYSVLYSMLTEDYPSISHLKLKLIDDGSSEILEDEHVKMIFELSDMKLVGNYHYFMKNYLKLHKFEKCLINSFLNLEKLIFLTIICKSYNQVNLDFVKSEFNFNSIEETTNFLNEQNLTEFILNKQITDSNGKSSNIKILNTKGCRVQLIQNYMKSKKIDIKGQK", "T3 sequence 2": "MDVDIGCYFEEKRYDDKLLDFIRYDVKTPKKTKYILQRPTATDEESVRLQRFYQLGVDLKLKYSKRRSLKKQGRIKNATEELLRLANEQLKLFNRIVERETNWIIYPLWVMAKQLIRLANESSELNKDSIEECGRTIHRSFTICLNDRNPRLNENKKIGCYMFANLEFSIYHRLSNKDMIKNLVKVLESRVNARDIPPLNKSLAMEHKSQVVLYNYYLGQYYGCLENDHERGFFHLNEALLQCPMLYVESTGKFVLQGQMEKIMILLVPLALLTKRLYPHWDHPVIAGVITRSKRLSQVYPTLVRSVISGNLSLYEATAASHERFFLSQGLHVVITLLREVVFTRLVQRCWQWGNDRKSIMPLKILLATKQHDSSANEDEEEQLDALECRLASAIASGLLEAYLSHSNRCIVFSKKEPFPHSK", "T3 sequence 3": "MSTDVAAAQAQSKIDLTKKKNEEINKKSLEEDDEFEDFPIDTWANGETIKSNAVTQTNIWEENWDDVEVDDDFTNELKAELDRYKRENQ", "assay": "fluorescence polarization; FP: 20 mM Tris-HCl pH 8.0, 150 mM NaCl, 2 mM MgCl2, 25 C; 50 nM 5'-FAM probe, protein 0-25.6 uM, 30 min", "settings": "protein: recombinant;recombinant;recombinant; tags: 8xHis-GST N-terminal, removed by TEV;none;none; copies: 1;1;1; label: 5' FAM"}, "[5]": {"target": "T4, Thp3 (186–470), truncated Thp3 (S. cerevisiae, UniProt Q12049 186-470)", "T4 construct": "Thp3 (Ypr045c), S. cerevisiae, residues 186-470 (HD and WH domains); 8×His-GST tag removed with TEV protease; also called truncated Thp3 (residues 186–470); not shown: His8, N-terminal, cleaved; GST, N-terminal, cleaved", "T4 sequence (looked up)": "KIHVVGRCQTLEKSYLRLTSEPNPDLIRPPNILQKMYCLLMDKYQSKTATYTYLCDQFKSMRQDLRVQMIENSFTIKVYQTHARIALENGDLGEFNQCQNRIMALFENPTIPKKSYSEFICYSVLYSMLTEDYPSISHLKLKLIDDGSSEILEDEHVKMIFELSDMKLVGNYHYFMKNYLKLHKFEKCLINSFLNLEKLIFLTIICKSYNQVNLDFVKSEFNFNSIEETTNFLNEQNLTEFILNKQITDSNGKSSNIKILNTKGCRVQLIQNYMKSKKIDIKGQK", "assay": "crystal structure + SEC; single copy of the ternary complex in the asymmetric unit; ratio said to be consistent with the gel filtration result", "settings": "both partners purified"}, "[6]": {"target": "T5, Csn12 (binary complex);Sem1 (Saccharomyces cerevisiae;Saccharomyces …, UniProt P47130;O94742 1-423;1-89, |)", "T5 sequence 1": "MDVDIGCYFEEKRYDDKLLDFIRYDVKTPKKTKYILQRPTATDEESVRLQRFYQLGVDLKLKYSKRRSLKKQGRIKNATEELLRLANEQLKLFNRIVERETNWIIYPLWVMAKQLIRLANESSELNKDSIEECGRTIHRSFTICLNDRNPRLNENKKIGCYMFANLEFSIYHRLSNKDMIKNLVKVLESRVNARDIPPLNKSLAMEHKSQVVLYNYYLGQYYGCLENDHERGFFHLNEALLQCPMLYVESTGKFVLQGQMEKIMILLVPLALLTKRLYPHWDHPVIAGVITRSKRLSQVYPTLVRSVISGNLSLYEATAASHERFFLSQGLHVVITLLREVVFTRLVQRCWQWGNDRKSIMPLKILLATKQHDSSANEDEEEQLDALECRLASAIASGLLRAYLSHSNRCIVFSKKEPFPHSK", "T5 sequence 2": "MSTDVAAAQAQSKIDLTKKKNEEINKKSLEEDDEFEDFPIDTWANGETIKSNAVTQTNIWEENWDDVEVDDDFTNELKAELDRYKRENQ", "assay": "fluorescence polarization; FP: 20 mM Tris-HCl pH 8.0, 150 mM NaCl, 2 mM MgCl2, 25 C; 50 nM 5'-FAM probe, protein 0-25.6 uM, 30 min", "settings": "protein: recombinant;recombinant; tags: 6xHis;none; copies: 1;1; label: 5' FAM"}},
  "data": [
    {"binder": "Sem1, full length, untagged (natural protein, S. cerevisiae, UniProt O94742 1-89, looked up, Sem1, S. cerevisiae, full length, residues 1-89; second MCS of pETDuet-1; source: E. coli Rosetta (DE3), co-expressed; in cleared lysate (pull-down) and purified in the ternary complex (Ni-NTA, gel filtration, cation exchange)) MSTDVAAAQAQSKIDLTKKKNEEINKKSLEEDDEFEDFPIDTWANGETIKSNAVTQTNIWEENWDDVEVDDDFTNELKAELDRYKRENQ", "values": [
      {"measurement": "stoichiometry N", "setting": "[1]", "value": 1}
    ]},
    {"binder": "TTTTATTTTATTTTTATTTT (ssDNA)", "note": "[T-rich ssDNA 20]", "values": [
      {"measurement": "Kd", "setting": "[2]", "value": 3.7, "unit": "µM"},
      {"measurement": "binding result", "setting": "[3]", "value": "no binding"},
      {"measurement": "binding result", "setting": "[4]", "value": "no binding"}
    ]},
    {"binder": "AUAUAUAUAUAUAUAUAUAUAUAUA (ssRNA)", "note": "[AU-repeat ssRNA 25]", "values": [
      {"measurement": "Kd", "setting": "[2]", "value": 1.6, "unit": "µM"}
    ]},
    {"binder": "AUAUAUAUAUAUAUAUAUAU (ssRNA)", "note": "[AU-repeat ssRNA 20]", "values": [
      {"measurement": "Kd", "setting": "[2]", "value": 4.5, "unit": "µM"}
    ]},
    {"binder": "B1", "values": [
      {"measurement": "stoichiometry N", "setting": "[5]", "value": 1}
    ]},
    {"binder": "T-rich dsDNA 20 (dsDNA) DNA 1: TTTTATTTTATTTTTATTTT DNA 2: AAAATAAAAATAAAATAAAA", "values": [
      {"measurement": "Kd", "setting": "[2]; blunt", "value": 1.1, "unit": "µM"}
    ]},
    {"binder": "TTTTATTTTATTTTTATTTTATTTT (ssDNA)", "note": "[T-rich ssDNA 25]", "values": [
      {"measurement": "Kd", "setting": "[2]", "value": 2.9, "unit": "µM"},
      {"measurement": "Kd", "setting": "[6]", "value": 33.8, "unit": "µM"}
    ]}
  ]
}
